# Where a chain is given by its changes, count along the chain named. In names and notes the source's numbering stands.
# B1: xCUSB0125 (antibody, human IgG4, V domains shown)
# VH: DVQLRESGPGLVKPSQSLSLTCTVTGYSITSDYAWNWIRQFPGNKLEWMGYIYYSGTTSYNPSLKSRISITRDTSKNQFFLQLNSVTTEDTATYYCARNYGSAFYYFDYWGQGTTLTVSS
# VL: DILMTQSPSSMSVSLGDTVTITCHASQGISSNIGWLQQKPGKSFKGLIYRGTNLEDGVPSRFSGSGSGADYSLTISSLESEDFADYYCVQYAQFPPTFGGGTKLEIK
# notes: Chimeric: mouse variable regions joined to human IgG4/kappa constant regions; also called chimeric CUSB0125; not shown: human IgG4 constant region, UniProt P01861; human kappa constant region, UniProt P01834
# B2: xCUSB0136 (antibody, human IgG4, V domains shown)
# VH: QVQLKESGPGLVAPSQSLSITCTVSGFSLTTYDIIWIRQSPGKGLEWLGVIWTGGDTNYNSAFMSRLSISKDNSKSQIFLKMNSLQTDDTAIYYCVRDWAYWGQGTLVTVST
# VL: NIVLTQSPASLAVSLGQRATISCRASESVDNYGNSFIQWYQQKPGQPPKLLIYFASNLQSGVPARFSGSGSRTDFTLTIDPVEADDAATYYCHQNNEDPFTFGSGTKLEIK
# notes: Chimeric: mouse variable regions joined to human IgG4/kappa constant regions; also called chimeric CUSB0136; xCUSBO136; not shown: human IgG4 constant region, UniProt P01861; human kappa constant region, UniProt P01834
# B3: zCUSB0125.9 (antibody, human IgG4, V domains shown)
# VH: QVQLQESGPGLVKPSQTLSLTCTVSGYSITSDYAWNWIRQPPGKGLEWMGYIYYSGTTSYNPSLKSRISITRDTSKNQFSLKLSSVTAADTAVYYCARNYGSAFYYFDYWGQGTTLTVSS
# VL: DIQMTQSPSSVSASVGDRVTITCHASQGISSNIGWLQQKPGKAFKGLIYRGTNLEDGVPSRFSGSGSGTDYTLTISSLQPEDFATYYCVQYAQFPPTFGGGTKLEIK
# notes: domain: human IgG4 constant region; Humanized; human IgG4 S228P and kappa constant regions; also called CUSB0125-BMVH.3 with CUSB0125-BMVL.3; not shown: human kappa constant region
# B4: zCUSB0125.6 (antibody, human IgG4, V domains shown)
# VH: B3 VH with S69T, T71S, V93T
# VL: B3 VL
# notes: domain: human IgG4 constant region; Humanized; human IgG4 S228P and kappa constant regions; also called CUSB0125-BMVH.2 with CUSB0125-BMVL.3; not shown: human kappa constant region
# B5: zCUSB0125.12 (antibody, human IgG4, V domains shown)
# VH: B3 VH with P41F, G45K
# VL: B3 VL
# notes: domain: human IgG4 constant region; Humanized; human IgG4 S228P and kappa constant regions; also called CUSB0125-BMVH.4 with CUSB0125-BMVL.3; not shown: human kappa constant region
# B6: zCUSB0125.3 (antibody, human IgG4, V domains shown)
# VH: B3 VH with M49I, I68V, S69T, T71S, R72V
# VL: B3 VL
# notes: domain: human IgG4 constant region; Humanized; human IgG4 S228P and kappa constant regions; also called CUSB0125-BMVH.1 with CUSB0125-BMVL.3; not shown: human kappa constant region
# B7: xCUSB0124 (antibody, human IgG4, V domains shown)
# VH: QIQLVQSGPELKKPGETVKISCKASGYIFTNYGVTWVKQTPGKGLKWMTWINTNTGEPTSAEEFKGRFDFSSETSATTAYLQINNLKNEDTATYFCVRIRENAMDYWGQGTSVTVSS
# VL: DIQMTQSPASQSASLGESVTITCLASQTIGTWLAWYQQKPGKSPQLLIYAATRLAVGVPSRFSGSGSGTKFSFKISRLQAEDFVSYYCQQLYSTPFTFGSGTKLEIK
# notes: Chimeric: mouse variable regions joined to human IgG4/kappa constant regions; also called chimeric CUSB0124; not shown: human IgG4 constant region, UniProt P01861; human kappa constant region, UniProt P01834
# B8: xCUSB0126 (antibody, human IgG4, V domains shown)
# VH: VKLVESGGDLVKPGGSLKLSCAASGFPFSSYLMSWVRQTPEKRLEWVAAISGGGRDTYYPDNVKGRFTISRDNARNILYLQMSSLRSEDTAVYYCATRGSYAMDYWGQGTSVTVSS
# VL: B7 VL with L46I, R53N, V56D, R77S, T94I, F96W, S100G
# notes: Chimeric: mouse variable regions joined to human IgG4/kappa constant regions; also called chimeric CUSB0126; not shown: human IgG4 constant region, UniProt P01861; human kappa constant region, UniProt P01834
# B9: xCUSB0129 (antibody, human IgG4, V domains shown)
# VH: B8 VH with D9G, N62S, V92L, T97R
# VL: B7 VL with L46I, A50D, R53N, V56D, R77S, T94I, F96W, S100G
# notes: Chimeric: mouse variable regions joined to human IgG4/kappa constant regions; also called chimeric CUSB0129; not shown: human IgG4 constant region, UniProt P01861; human kappa constant region, UniProt P01834
# B10: xCUSB0123 (antibody, human IgG4, V domains shown)
# VH: QVQLQQSGPELVRPGESVKISCKGSGYTFTDYVMHWVKQSHAKSLEWIGVITIYNDITNYNQKFKGKATMTIDKSSSTAYMELARLTSEDSAIYYCAREGYDSYWYFDVWGAGTTVTVSS
# VL: DVLMTQTPLSLPVSLGDQASISCRSSQTIVHSNGNTYLEWYLQKPGQSPKLLIYKVSNRFSGVPDRFSGSGSGTDFTLKISRVEAEDLGVYYCFQGSHLPYTFGGGTKLEIK
# notes: Chimeric: mouse variable regions joined to human IgG4/kappa constant regions; also called chimeric CUSB0123; not shown: human IgG4 constant region, UniProt P01861; human kappa constant region, UniProt P01834
# B11: xCUSB0103 (antibody, human IgG4, V domains shown)
# VH: DVKLVESGGGLVKPGGSLKLSCAASGFTFSSYTMSWVRQTPEKRLEWVAAISGGGSYTYYADSVKGRFTISRDNAKNTLSLQMSSLKSEDTAMYFCTSPYDFAMDYWGQGTSVTVSS
# VL: DIQMTQTTSSLSASLGDRVTISCRASQDITNYLNWYQQKPDGSVKLLIYYTSRLHSGVPSRFRGSGSGTDYSLTISNLEQEDIATYFCQQGNTLPWTFGGGTKLEIK
# notes: Chimeric: mouse variable regions joined to human IgG4/kappa constant regions; also called chimeric CUSB0103; not shown: human IgG4 constant region, UniProt P01861; human kappa constant region, UniProt P01834
# Molecular target: T1, human PD-1 on PD-1-expressing Jurkat effector cells (human, UniProt Q15116 25-288)
# T1 sequence (Q15116 25-288): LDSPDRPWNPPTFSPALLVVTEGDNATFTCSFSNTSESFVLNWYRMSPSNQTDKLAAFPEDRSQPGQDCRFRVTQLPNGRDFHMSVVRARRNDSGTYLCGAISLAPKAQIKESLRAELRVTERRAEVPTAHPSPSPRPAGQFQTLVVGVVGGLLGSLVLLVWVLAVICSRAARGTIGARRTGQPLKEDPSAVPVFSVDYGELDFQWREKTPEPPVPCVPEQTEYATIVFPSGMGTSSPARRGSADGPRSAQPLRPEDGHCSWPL
# Assay: cell-based or functional assay
row,Binder,IC50 (read off the curve) [µg/mL]
1,B1,~0.3

# Molecular target: T1, human PD-1 on PD-1-expressing Jurkat …
# Assay: cell-based or functional assay
# Remark: another data set of the same source
row,Binder,IC50 (read off the curve) [µg/mL]
1,B2,~0.4

# Molecular target: T2, recombinant human PD-1 His-tag protein (R&D Systems) (human, UniProt Q15116 25-167)
# T2 construct: Bought reagent; Used for the ELISA (coated) and for SPR (analyte); also called PD-1 protein; human PD-1 protein; not shown: His-tag
# T2 sequence (Q15116 25-167 limits assumed): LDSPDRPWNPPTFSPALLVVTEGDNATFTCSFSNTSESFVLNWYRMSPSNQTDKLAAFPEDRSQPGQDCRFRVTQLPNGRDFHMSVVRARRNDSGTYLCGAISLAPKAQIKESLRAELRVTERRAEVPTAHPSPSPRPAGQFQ
# Assay: SPR, Biacore T200, as in Example 8 (antibody on Protein G chip, PD-1 His-tag injected)
# Protocol: (§1) The Biacore T200 instrument, equipped with a Protein G sensor chip (GE Healthcare), was used to determine the binding kinetics between chimeric anti-PD-1 antibodies and PD-1 protein. Each purified chimeric anti-PD-1 antibody (1 μg/mL) was injected into the chip with a flow rate of 30 μL/min for 60 sec. […] The HBS-EP+buffer (GE Healthcare) was used as a buffer blank and diluent. The association constant (kₒₙ), dissociation constant (koff), and equilibrium constant (KD) values were calculated using Biacore T200 evaluation software (version 3.1) with a 1:1 Langmuir binding model curve fitting.
Binder,Kd [nM],koff [s⁻¹],kon [M⁻¹ s⁻¹]
B3,0.249,0.000746,2.99e+06
B4,0.227,0.000721,3.18e+06
B5,0.182,0.000579,3.18e+06
B6,3.28,0.00944,2.88e+06

# Molecular target: T1, human PD-1 on PD-1-expressing Jurkat …
# Assay: cell-based or functional assay
# Remark: another data set of the same source
row,Binder,"PD-1/PD-L1 blockade bioassay, IC50 [ng/mL]"
1,B3,462
2,B4,297
3,B5,312
4,B6,2410

# Molecular target: T2, recombinant human PD-1 His-tag protein …
# Assay: ELISA, PD-1 His-tag coated on plate, anti-human IgG Fc-HRP detection
# Protocol: ELISA technique was used to select hybridoma mini-pools producing anti-PD-1 antibodies using the following procedure. MaxiSorp ELISA plate was coated with PD-1 His-tag (R&D System) in PBS buffer (10 ng/100 μL/well) at 4° C. overnight. […] The culture supernatant of each mini-pool (100 μL) was added to the plate then incubated for 1 hour at 37° C. After washing, the plate was probed with goat anti-mouse IgG Fcγ-HRP (Jackson Immuno Research) diluted 1:8,000 in PBST (100 μL/well) and incubated for 1 hour at 37° C. […] 1 M H₂SO₄ (50 μL/well) was used to stop the reaction. […] Hybridoma mini-pools with absorbance values of more than 1.0 were selected for further screening.
# The purified chimeric antibodies were 2-fold serial diluted for eleven rounds starting from […] until reaching the final concentration of 0.977 ng/mL. The PD-1 binding activity of purified chimeric antibodies was evaluated by ELISA following the procedure mentioned in Example 2, while the goat anti-human IgG Fcγ-HRP antibody (Jackson Immuno Research) diluted 1:10.000 in PBST was used to detect chimeric antibodies.
row,Binder,EC50 [µg/mL]
1,B1,0.0201
2,B7,0.0894
3,B8,0.0437
4,B9,0.0347
5,B10,0.0353
6,B2,0.0154
7,B11,0.0284

# Molecular target: T2, recombinant human PD-1 His-tag protein …
# Assay: SPR, Biacore T200, antibody captured on Protein G chip, PD-1 His-tag injected, single-cycle kinetics, 1:1 model
# Protocol: as §1
Binder,Kd [nM],koff [s⁻¹],kon [M⁻¹ s⁻¹]
B1,0.18,0.000512,2.84e+06
B7,5.92,0.000912,154000
B8,0.577,0.000285,493000
B9,0.621,0.000293,471000
B10,1.23,0.000366,298000
B2,0.083,0.000193,2.3e+06
B11,0.448,0.000292,653000

# Molecular target: T1, human PD-1 on PD-1-expressing Jurkat …
# Assay: cell-based or functional assay
# Remark: another data set of the same source
row,Binder,"PD-1/PD-L1 blockade bioassay, IC50 [ng/mL]"
1,B1,302
2,B7,2930
3,B8,430
4,B9,455
5,B10,957
6,B2,372
7,B11,593
